Columns and labels:
[1] = target: T1, epidermal growth factor receptor (EGFR) (human, UniProt P00533 25-1210); assay: cell-based or functional assay
[2] = target: T1, epidermal growth factor receptor (EGFR); assay: flow cytometry, equilibrium binding on EGFR-expressing A431 cells (apparent KD)
Protocol: Detection of bound antibody or immunoRNase was performed using murine anti-c-myc monoclonal antibody clone 9E10 (Roche, Penzberg, Germany) and goat-anti-mouse fluorescein isothiocyanate (FITC) conjugate (Jackson ImmunoResearch, Suffolk, UK). Fluorescence of stained cells was measured on a FACS Canto II flow cytometer (Becton Dickinson) using the FACS Diva Software (Becton Dickinson). Background fluorescence was substracted from measured median fluorescence and relative affinities were calculated by nonlinear regression using GraphPad Prism 5.0 (GraphPad Software, La Jolla, Calif., USA).

| Binder | IC50 (nM), cell viability, A431 [1] | IC50 (nM), cell viability, HNO97 [1] | IC50 (nM), cell viability, HNO211 [1] | IC50 (nM), cell viability, HNO410 [1] | Kd [2] |
| --- | --- | --- | --- | --- | --- |
| Ranpirnase-GS-scFv (other, Q* at position 1 of SEQ ID NO:4 stands for a pyroglutamate (as printed for Ranpirnase), also called Ranpimase-GS-scFv; immunoRNase Ranpirnase-GS-scFv; not shown: C-terminal c-myc tag; C-terminal hexahistidine tag) QDWLTFQKKHITNTRDVDCDNIMSTNLFHCKDKNTFIYSRPEPVKAICKGIIASKNVLTTSEFYLSDCNVTSRPCKYKLKKSTNKFCVTCENQAPVHFVGVGSCGGGGSGGGGSGGGGSEVQLVESGGGLVQPGGSLRLSCAASGFSLTNYGVHWVRQAPGKGLEWLGVIWSGGNTDYNTPFTSRFTISRDNSKNTLYLQMNSLRAEDTAVYYCARALTYYDYEFAYWGQGTTVTVSSGGGGSGGGGSGGGGSDIQLTQSPSFLSASVGDRVTITCRASQSIGTNIHWYQQKPGKAPKLLIKYASESISGVPSRFSGSGSGTEFTLTISSLQPEDFATYYCQQNNNWPTTFGAGTKLEIKR | > 3620 nM | 1260 nM | 1420 nM | 2520 nM | 14.7 nM |
| humanized anti-epidermal growth factor receptor (EGFR) scFv IZI08 (scFv, Expressed in E. coli periplasm, monomer purified by SEC; also called anti-EGFR scFv; anti-EGFR scFv IZI08; not shown: C-terminal c-myc tag; C-terminal hexahistidine tag) scFv: EVQLVESGGGLVQPGGSLRLSCAASGFSLTNYGVHWVRQAPGKGLEWLGVIWSGGNTDYNTPFTSRFTISRDNSKNTLYLQMNSLRAEDTAVYYCARALTYYDYEFAYWGQGTTVTVSSGGGGSGGGGSGGGGSDIQLTQSPSFLSASVGDRVTITCRASQSIGTNIHWYQQKPGKAPKLLIKYASESISGVPSRFSGSGSGTEFTLTISSLQPEDFATYYCQQNNNWPTTFGAGTKLEIKR | > 3620 nM | > 3620 nM | > 3620 nM | > 3620 nM | 9.6 nM |
